Assay results published in the RNAGym collection of RNA variant scans (doi:10.7554/elife.90254).

B1: LINE1-full (parent)
chain: UACGUAGGUGGUUUUCCCCUGAUAGUGCUAAGGGGGCCUGGAAGUUUGGACUGGGCAGAGCUCAACACAGCGUGGCAAAGUGGCUGUGGCUAGACUGCCUCUCUGGAUUCCUCGUCACUCAGCAGGGCAUCUCUGAGAGAAAUGCC

Variants of: B1
Test: self-cleavage, relative activity (ratio to wild type); higher = more cleavage; in vitro, sequencing; the parent is a self-cleaving ribozyme

Row | Variant | self-cleavage
1 | UACGUAGGUGGUUUUCCCCUGAUAGUGCUAAGGGGGCCUGUAAGAUUGGACUGGGCAGAGCUCAACACAGCGUGGCAAAGUGGCUGUGGCUAGACUGCCUCUCUGGAUUCCUCGUCACUCAGCAGGGCAUCUCUGAGAGAAAUGCC | 1.14
2 | UACGUAGGUGGUUUUCCCCUGAUAGUGCUAAGGGGGACUGGAAGUUUGGACUGGGCAGAGCUCAACACAGCGUGGCAAAGUGGCUGUGGCUAGACUGCCCCUCUGGAUUCCUCGUCACUCAGCAGGGCAUCUCUGAGAGAAAUGCC | 1.56
3 | UACGUAGGUGGAUUUCCCCUGAUAGUGCUAAGGGGGCCUGGAAGUUUGGACUGGGCAGAGCUCUACACAGCGUGGCAAAGUGGCUGUGGCUAGACUGCCUCUCUGGAUUCCUCGUCACUCAGCAGGGCAUCUCUGAGAGAAAUGCC | 0.79
4 | UACGUAGGUGGUUUUCCCCUGAUAGUGCUAAGGGGGCCUGGAAGUUUGGACUGGGCAGAGCUCAACACAGCGUGGCAAGGUGGCUGUGGCUAGACUGCCUCUCGGGAUUCCUCGUCACUCAGCAGGGCAUCUCUGAGAGAAAUGCC | 1.7
5 | UACGUAGGUGGUUUUCCCCUGAUAGUGCUAAGGGGGCCUGGAAGUUUGGACUGGGCAGAGCUCUGCACAGCGUGGCAAAGUGGCUGUGGCUAGACUGCCUCUCUGGAUUCCUCGUCACUCAGCAGGGCAUCUCUGAGAGAAAUGCC | 0.07
6 | UACGUAGGUGGUUUUCCCCUGAUAGUGCUAAGGGAGCCUGGAAGUUUGGACUGGGCAGAGCUCAACACAGCGUGGCAAAGUGGCUGUGGCUAGACUGCCUCUCUAGAUUCCUCGUCACUCAGCAGGGCAUCUCUGAGAGAAAUGCC | 1.15
7 | UACGUAGGUGGUCUUCCCCUGAUAGUGCUAAGGGGGCCUGGAAGUUUGGACUGGGCAGAGCUUAACACAGCGUGGCAAAGUGGCUGUGGCUAGACUGCCUCUCUGGAUUCCUCGUCACUCAGCAGGGCAUCUCUGAGAGAAAUGCC | 0.32
8 | UACGUAGGUGGUUUUCCCCUGAUAGCGCUAAGGGGGCCAGGAAGUUUGGACUGGGCAGAGCUCAACACAGCGUGGCAAAGUGGCUGUGGCUAGACUGCCUCUCUGGAUUCCUCGUCACUCAGCAGGGCAUCUCUGAGAGAAAUGCC | 1.9
9 | UACGUAGGUGGUUUCCCCCUGAUAGUGCUAAGGGGGCCUGGAAGUUUGGACUGGGCAGAGCUCAACACAGCGUGGCAAAGUGGCUGUGGCUAGACUGCCUCUCUGGAUUCCUCGUCACUCAGUAGGGCAUCUCUGAGAGAAAUGCC | 1.72
10 | UACGUAGGUGGUUUUCCCCUGAUAGUGCUAAGGGGGCCUGGAAGAUUGGACUGGGCAGAACUCAACACAGCGUGGCAAAGUGGCUGUGGCUAGACUGCCUCUCUGGAUUCCUCGUCACUCAGCAGGGCAUCUCUGAGAGAAAUGCC | 0.03
11 | UACGUAGGUGGUCUUCCCCUGAUAGUGCUAAGGGGGCCUGGAAGUUUGGACUGGGCACAGCUCAACACAGCGUGGCAAAGUGGCUGUGGCUAGACUGCCUCUCUGGAUUCCUCGUCACUCAGCAGGGCAUCUCUGAGAGAAAUGCC | 0.08
12 | UACGUAGGUGGUUUUCCCCUGAUAGUGCUAAGGGGGCCUGGAAGAUUGGACUGGGCAGAGCUCAACACAGCGUGGCAAAGUGGCUGUGGCUAGACUGCCUCUCUGGAUUCCUCGUCACUCAGCAGGGCGUCUCUGAGAGAAAUGCC | 1.26
13 | UACGUAGGUUGUUUUCCCCUGAUAGUGCUAAGGGGGCCUGGAAGUUUGGACUGGGCAGAGCUCAACACAGCGUGGCAAAGUGGCUGUGGCUAGACUGCCUCUCUGGAUUCCUCGUCACUCAGCAGGGCAUCUCUGAGUGAAAUGCC | 1
14 | UACGUAGGUGGUUUUCCCCUGAUAGUGCUAAGGGGGCCUGGAAGUUUAGACUGGGCAGAGCUCAACACAGCGUGGCAAAGUGGCUGCGGCUAGACUGCCUCUCUGGAUUCCUCGUCACUCAGCAGGGCAUCUCUGAGAGAAAUGCC | 0.12
15 | UACGUAGGUGGUUUUCCCCUGAUAGUGCUAAGGGGGCCUGGAAGUUUGGACUGGGCAGAGCUCAACACAGCAUGGCAAAGUGGCUGUGGCUAGACUGCCUCUCAGGAUUCCUCGUCACUCAGCAGGGCAUCUCUGAGAGAAAUGCC | 0.93
16 | UACGUAGGUGGUUUUCCCCUGAUAGUGCUAAGGGGGCCUGGAAGUUUGGACUGGGCAGAGCUCAACACAGCGUGGCAAAGUGGCUGUGGCUAGACUGCCUUUCUGGAUUCCUCGUCACUCAGCAGGGCACCUCUGAGAGAAAUGCC | 1.54
17 | UACGUAGGUGGUUUUCCCCUGAUAGUGCUAAGGGGGCCUGGAAGUUUAGACUGGGCAGAGCUCAACACAGCGUGGCAAAGUGGCUGUGGCUAGACUGCCUCUCUGGAUUCCUCGUCACUCAGCAGGGCUUCUCUGAGAGAAAUGCC | 1.13
18 | UACGUAGGUGGUUUUCCCCUGAUAGUGCUAAGGGGGCCUGGAAGUUUGGACUGGGCAGAGCUCAACACAGCAUGGCAAAGUGGCUGUAGCUAGACUGCCUCUCUGGAUUCCUCGUCACUCAGCAGGGCAUCUCUGAGAGAAAUGCC | 0.03
19 | UACGUAGGUGGUUUUCCCCUGAUAGUGCUAAGGGGGCCUGGAAGUUUGGACUGGGCAGAGCUCAACACAGCGAGGCAUAGUGGCUGUGGCUAGACUGCCUCUCUGGAUUCCUCGUCACUCAGCAGGGCAUCUCUGAGAGAAAUGCC | 1.94
20 | UACGUAGGUGGGUUUCCCCUGAUAGUGCUAAGGGGGCCUGGAAGUUUGGACUGGGCAGAGCUCAACUCAGCGUGGCAAAGUGGCUGUGGCUAGACUGCCUCUCUGGAUUCCUCGUCACUCAGCAGGGCAUCUCUGAGAGAAAUGCC | 0.23
